In patent publication US20230212549A1 (3B PHARMACEUTICALS, published 2023):
Where “and” joins values, the source holds several entries; their conditions need not be identical. Equal entries are not always repeated. Numbered stars: 1 amine (or outer) side, 2 acyl side, 3 side chain; on linkers, the order of the positions; unused ones are H or OH. Bridge positions count the residues as written; N and C are the ends. Square brackets hold non-standard residues; d marks the D form. Primed or numbered codes have the meaning given here. * marks the point of attachment. tMeBn(DOTA-PP) = 1,3,5-trimethylbenzylidene, two thioethers to Cys, third CH2 bound to one N of piperazine whose other N bears DOTA, O=C(O)CN1CCN(CC(=O)O)CCN(CC(=O)N2CCN(Cc3cc(C[*:1])cc(C[*:2])c3)CC2)CCN(CC(=O)O)CC1; TBMB(SCH2CH2NH-DOTA) = O=C(O)CN1CCN(CC(=O)O)CCN(CC(=O)NCCSCc2cc(C[*:1])cc(C[*:2])c2)CCN(CC(=O)O)CC1; Ttds = 1,13-diamino-4,7,10-trioxatridecan-succinamic acid, O=C(CCC(=O)[*:2])NCCCOCCOCCOCCCN[*:1]; 3MeBn = 3-Methylbenzylidene (m-xylylene thioether bridge from α,α′-dibromo-m-xylene); Ttds(4) = spacer between chelator and peptide, O=C(CCC(=O)[*:2])NCCCOCCOCCOCCCN[*:1]; N4Ac = 6-Carboxy-1,4,8,11-tetraazaundecane, an N4-chelator, NCCNCC(CNCCN)C(=O)*; NODAGA′ = 1,4,7-triazacyclononane-1-glutaric acid-4,7-diacetic acid chelator; DTPA = O=C(O)CN(CCN(CC(=O)O)CC(=O)O)CCN(CC(=O)O)CC(=O)*; Pro(trans-4-Ph) = O=C(O)[C@@H]1C[C@@H](c2ccccc2)CN1; nBu‑CAyl = n-butylaminocarbonyl, CCCCNC(=O)*; Pro(4S-NH2) = N[C@@H]1CN[C@H](C(=O)O)C1; mXylylene = c1cc(C[*:1])cc(C[*:2])c1; PPAc = 4-Carboxymethyl piperazine; Pen = CC(C)(S)[C@H](N)C(=O)O; Nle = CCCC[C@H](N)C(=O)O; PEG6′ = not defined here; Hexanoyl = CCCCCC(=O)*; Sar = CNCC(=O)O

How the values were obtained:
[1] = molecular target: T1, human fibroblast activating protein (FAP) on WI-38 fibroblasts (human, UniProt Q12884 1-760); experiment: competitive FACS on WI-38 cells vs 3 nM Cy5-labeled peptide; pIC50 category A = >8.0
T1 construct: FAP-expressing human WI-38 fibroblasts (ECACC)

[2] = molecular target: T2, Human recombinant FAP captured on anti-FAP antibody (SPR) (human, UniProt Q12884 26-760); experiment: SPR (Biacore), rhFAP captured by anti-FAP antibody; pKD category A = >8.0
T2 construct: whole entry of human FAP named; also called rhFAP

[3] = molecular target: Recombinant human FAP (R&D systems, #3715-SE) (human, UniProt Q12884 26-760); experiment: cell-based or functional assay
[4] = molecular target: T3, fibroblast activation protein (FAP) on FAP-expressing human WI-38 fibroblasts (human, UniProt Q12884 1-760); experiment: competitive FACS, WI-38 cells, vs Cy5 tracer m3; D = pIC50 <=6.0
T3 construct: also called human FAP

[5] = molecular target: T4, human fibroblast activation protein (FAP) on WI-38 fibroblasts (human, UniProt Q12884 1-760); experiment: competitive FACS, WI-38 cells, Cy5-labeled peptide as competitor; C = pIC50 6.1 to 7.0
T4 construct: FAP-expressing human WI-38 fibroblasts (ECACC)

[6] = molecular target: T1, human fibroblast activating protein …; experiment: competitive FACS on WI-38 cells vs 3 nM Cy5-labeled peptide; pIC50 category B = 7.1-8.0

Q: For {N4Ac-PPAc-Ttds(4)}-[Nle]CPPTEFCD-OH (linker 2-8 via 3MeBn, also called 3BP-4785) [N4Ac-PPAc-Ttds-Nle-[C(3MeBn)-PPTEFC]D-OH], which pIC50 [1] is on record?
A: Its pIC50 is over 8 pic50.

B1: nBu-CAyl-[Cys(tMeBn(DOTA-AET))-Nmg-Pro-Thr-Gln-Phe-Cys]-OH (peptide)
peptide: {nBu‑CAyl}-C[Sar]PTQFC-OH
modifications: linker 1-7 via TBMB(SCH2CH2NH-DOTA)
SMILES: CCCCNC(=O)N[C@H]1CSCc2cc(CSCCNC(=O)CN3CCN(CC(=O)O)CCN(CC(=O)O)CCN(CC(=O)O)CC3)cc(c2)CSC[C@@H](C(=O)O)NC(=O)[C@H](Cc2ccccc2)NC(=O)[C@H](CCC(N)=O)NC(=O)[C@H]([C@@H](C)O)NC(=O)[C@@H]2CCCN2C(=O)CN(C)C1=O
notes: also called 3BP-4607
Q: B1 was tested. Which pKD [2] did it give?
A: Its pKD is over 8 pkd.

B2: Hex-[Cys(3MeBn)-Pro-Tap-Thr-Glu-Phe-Cys]-NH2 (peptide)
peptide: Hexanoyl-CP[Pro(4S-NH2)]TEFC-NH2
modifications: linker 1-7 via mXylylene
SMILES: CCCCCC(=O)N[C@H]1CSCc2cccc(c2)CSC[C@@H](C(N)=O)NC(=O)[C@H](Cc2ccccc2)NC(=O)[C@H](CCC(=O)O)NC(=O)[C@H]([C@@H](C)O)NC(=O)[C@@H]2C[C@H](N)CN2C(=O)[C@@H]2CCCN2C1=O
notes: also called 3BP-3367
Q: Which “pIC50 Category (Activity)” value [3] does the source give for B2 here?
A: Its value is 6.1 pIC50 and 7 pIC50.

Q: What about the “pIC50 Category (FACS)” value [4] of the same binder?
A: The value was at most 6 pIC50.

B3: Hex-[Cys(3MeBn)-Pro-Eay-Thr-Glu-Phe-Cys]-NH2 (peptide)
peptide: Hexanoyl-CP[Pro(trans-4-Ph)]TEFC-NH2
modifications: linker 1-7 via mXylylene
SMILES: CCCCCC(=O)N[C@H]1CSCc2cccc(c2)CSC[C@@H](C(N)=O)NC(=O)[C@H](Cc2ccccc2)NC(=O)[C@H](CCC(=O)O)NC(=O)[C@H]([C@@H](C)O)NC(=O)[C@@H]2C[C@@H](c3ccccc3)CN2C(=O)[C@@H]2CCCN2C1=O
notes: also called 3BP-3353
Q: What does the source list for B3?
A: pIC50 Category (Activity) [3]: 6.1 pIC50 and 7 pIC50; pIC50 Category (FACS) [4]: ≤ 6 pIC50

B4: Hex-[Cys(3MeBn)-Pro-Pro-Thr-Glu-Phe-Pen]-NH2 (peptide)
peptide: Hexanoyl-CPPTEF[Pen]-NH2
modifications: linker 1-7 via mXylylene
SMILES: CCCCCC(=O)N[C@H]1CSCc2cccc(c2)CSC(C)(C)[C@@H](C(N)=O)NC(=O)[C@H](Cc2ccccc2)NC(=O)[C@H](CCC(=O)O)NC(=O)[C@H]([C@@H](C)O)NC(=O)[C@@H]2CCCN2C(=O)[C@@H]2CCCN2C1=O
notes: also called 3BP-3351
Q: Which “pIC50 Category (Activity)” value [3] does the source give for B4 here?
A: The value was 6.1 pIC50 and 7 pIC50.

Q: What about the “pIC50 Category (FACS)” value [4] of the same binder?
A: The value was at most 6 pIC50.

B5: DTPA-Ttds-Nle-[Cys-(3MeBn)-Pro-Pro-Thr-Glu-Phe-Cys]-OH (peptide)
peptide: {DTPA}-[Ttds][Nle]CPPTEFC-OH
modifications: linker 3-9 via mXylylene
SMILES: CCCC[C@H](NC(=O)CCC(=O)NCCCOCCOCCOCCCNC(=O)CN(CCN(CCN(CC(=O)O)CC(=O)O)CC(=O)O)CC(=O)O)C(=O)N[C@H]1CSCc2cccc(c2)CSC[C@@H](C(=O)O)NC(=O)[C@H](Cc2ccccc2)NC(=O)[C@H](CCC(=O)O)NC(=O)[C@H]([C@@H](C)O)NC(=O)[C@@H]2CCCN2C(=O)[C@@H]2CCCN2C1=O
notes: also called 3BP-4229
Q: With B5 as the binder, how does the pIC50 [5] read?
A: Its pIC50 is 6.1 to 7 pic50.

Q: How did the pIC50 [6] turn out when {N4Ac-PEG6′-Ttds(4)}-[Nle]CPPTEFC-OH (linker 2-8 via 3MeBn, also called 3BP-4780) [N4Ac-PEG6-Ttds-Nle-[C(3MeBn)-PPTEFC]-OH] was run?
A: Its pIC50 is 7.1 to 8 pic50.

Q: For {NODAGA′-Ttds(4)}-[Nle]CPPTEFC-NH2 (linker 2-8 via mXylylene, also called 3BP-4743) [NODAGA-Ttds-Nle-[C(3MeBn)-PPTEFC]-NH2], which pIC50 [6] is on record?
A: The pIC50 was 7.1 to 8 pic50.

Q: For {N4Ac-PPAc-PEG6′}-[Nle]CPPTEFC-OH (linker 2-8 via 3MeBn, also called 3BP-4781) [N4Ac-PPAc-PEG6-Nle-[C(3MeBn)-PPTEFC]-OH], which pIC50 [6] is on record?
A: The pIC50 was 7.1 to 8 pic50.

Q: With {N4Ac-PPAc-Ttds(4)}-[Nle]CPPTEFC-OH (linker 2-8 via 3MeBn, also called 3BP-4782) [N4Ac-PPAc-Ttds-Nle-[C(3MeBn)-PPTEFC]-OH] as the binder, how does the pIC50 [6] read?
A: Its pIC50 is 7.1 to 8 pic50.

Q: With {NODAGA′-Ttds(4)}-[Nle]CPPTEFC-OH (linker 2-8 via mXylylene, also called 3BP-4714) [NODAGA-Ttds-Nle-[C(3MeBn)-PPTEFC]-OH] as the binder, how does the pIC50 [6] read?
A: Its pIC50 is 7.1 to 8 pic50.

B6: Hex-[Cys(tMeBn(DOTA-PP))-Pro-Pro-Ala-Gln-Phe-Cys]-Asp-NH2 (peptide)
peptide: Hexanoyl-CPPAQFCD-NH2
modifications: linker 1-7 via tMeBn(DOTA-PP)
SMILES: CCCCCC(=O)N[C@H]1CSCc2cc(cc(CN3CCN(C(=O)CN4CCN(CC(=O)O)CCN(CC(=O)O)CCN(CC(=O)O)CC4)CC3)c2)CSC[C@@H](C(=O)N[C@@H](CC(=O)O)C(N)=O)NC(=O)[C@H](Cc2ccccc2)NC(=O)[C@H](CCC(N)=O)NC(=O)[C@H](C)NC(=O)[C@@H]2CCCN2C(=O)[C@@H]2CCCN2C1=O
notes: also called 3BP-3745
Q: Which pIC50 [5] does the source give for B6 here?
A: Its pIC50 is 6.1 to 7 pic50.

B7: Hex-[Cys(tMeBn(DOTA-PP))-Pro-Pro-Thr-Ala-Phe-Cys]-Asp-NH2 (peptide)
peptide: Hexanoyl-CPPTAFCD-NH2
modifications: linker 1-7 via tMeBn(DOTA-PP)
SMILES: CCCCCC(=O)N[C@H]1CSCc2cc(cc(CN3CCN(C(=O)CN4CCN(CC(=O)O)CCN(CC(=O)O)CCN(CC(=O)O)CC4)CC3)c2)CSC[C@@H](C(=O)N[C@@H](CC(=O)O)C(N)=O)NC(=O)[C@H](Cc2ccccc2)NC(=O)[C@H](C)NC(=O)[C@H]([C@@H](C)O)NC(=O)[C@@H]2CCCN2C(=O)[C@@H]2CCCN2C1=O
notes: also called 3BP-3739
Q: For B7, which pIC50 [5] is on record?
A: Its pIC50 is 6.1 to 7 pic50.
